Drawing on article PMC3656097, this text covers Kd, koff and kon for 2 substances.

The target of test [1] is FGF2 (UniProt P09038). Particulars: cited from earlier work.
The target in test [2] is FGF2 (UniProt P09038). The test is described as follows: SPR; BIAcore 3000; […] (31.25–[…]), HBS-EP buffer; 1:1 Langmuir fit.
Test [3] addresses FGF9 (UniProt P31371). The test is described as above.
Test [4] addresses FGF2 (UniProt P09038). The description is as above. The source holds these as a separate data set.
The target in test [5] is FGF9 (UniProt P31371). The test is described as above. This is another data set of the same source.

Read-outs that look alike come from different tables or passages of the source.

In general, Kd refers to the constant that tells how readily two partners part at equilibrium. Regarding FGFR2b Loop 2,3 (from UniProt P21802), the Kd in the test with FGF2 [1] is 12.8 nM.

The koff is a measure of how fast the partners let go of each other. One may read the kon as a measure of how fast the partners come together. Consider FGFR3b Loop 2,3 (domain or fragment), for which the Kd in the test with FGF2 [2] was found to be 12.3 nM; in the test with FGF9 [3] it was 31.2 nM; with FGF2 [4] it was 13.5 nM; in the test with FGF9 [5], 29.9 nM. Besides, the off-rate constant (koff) with FGF2 [2] was 0.000159 s⁻¹; with FGF9 [3], 9.25e-05 s⁻¹; with FGF2 [4] it was 6.69e-05 s⁻¹; in the test with FGF9 [5], 6.53e-05 s⁻¹. Besides, the kon with FGF2 [2] is 16500 M⁻¹ s⁻¹; with FGF9 [3], 2920 M⁻¹ s⁻¹; in the test with FGF2 [4] it was 4980 M⁻¹ s⁻¹; with FGF9 [5], 2190 M⁻¹ s⁻¹.
